Assay [1] addresses cyno IgE c(epsilon)2-c(epsilon)3-c(epsilon)4 Fc fragment with C-terminal (His)10 tag (cynomolgus monkey). Nature of the assay: Alphascreen, competition with HuFc(epsilon)RI(alpha)Fc for cyno IgE Fc.
The target is the same in assay [2]. Described as above. The source holds these as a separate data set.

As usually defined, the % inhibition is the relative decrease from the control value, in per cent. High values mean a strong effect, low ones a weak effect. The term IC50 denotes the concentration needed to halve the response being measured. A low value points to greater potency.

Read-outs that look alike come from different tables or passages of the source.

Sequence of cyno IgE c(epsilon)2-c(epsilon)3-c(epsilon)4 Fc fragment with C-terminal (His)10 tag (cynomolgus monkey) (chain, as listed by the source): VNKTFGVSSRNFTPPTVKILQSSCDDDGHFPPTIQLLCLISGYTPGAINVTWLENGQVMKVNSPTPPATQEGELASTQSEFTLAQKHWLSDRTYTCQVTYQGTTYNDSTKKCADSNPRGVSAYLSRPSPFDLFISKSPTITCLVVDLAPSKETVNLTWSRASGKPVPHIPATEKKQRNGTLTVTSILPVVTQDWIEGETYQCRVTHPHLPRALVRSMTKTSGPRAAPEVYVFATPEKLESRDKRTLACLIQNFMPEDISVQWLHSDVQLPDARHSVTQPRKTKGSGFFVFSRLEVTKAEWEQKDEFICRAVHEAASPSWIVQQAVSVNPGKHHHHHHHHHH

In assay [1], “Fab obtained by papain digestion of commercially obtained omalizumab” gave a % inhibition at 250 nM of 99.3% and an IC50 of 1.39 nM. In assay [2], the % inhibition at 250 nM stood at 97.7% and the IC50 is 1.3 nM.

Values taken from WO2012175740A1.
